Test results taken from the supplement of paper PMC10724198.

Tests used:
Saccharomyces cerevisiae [1] = assay: protein stability index of tFT-peptide fusion in wild type (PSI (0-1 scale)); higher = more stable (slower turnover); conditions: genetic background: wild type
Procedure: (§1)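 MPS profiling in S. cerevisiae of two library types built from selected 12-aa C-degron peptides (IN1, IN2, LN1, LN3, VN2, R1-R5, W1-W3, Atg1 and Rpa12 C-termini): saturation mutagenesis libraries and C-terminal +1 capping libraries (13 aa). Each peptide is fused to the C-terminus of a sfGFP-mCherry timer, after a GGGS linker. Cells are FACS-sorted into 8 mCherry/sfGFP bins and sequenced. PSI runs from 0 (unstable) to 1 (stable), measured once in wild type and in the das1Δ or doa10Δ background.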

Saccharomyces cerevisiae [2] = assay: protein stability index of tFT-peptide fusion in deletion strain of DAS1 (PSI (0-1 scale)); higher = more stable (slower turnover)
Procedure: as §1
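For protein stability index of tFT-peptide fusion in deletion strain of DAS1 in this document: PSI is a weighted mean of each variant's read distribution over the sorted stability bins, computed only for variants having over 10 reads in total.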
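For protein stability index of tFT-peptide fusion in wild type in this document: PSI derived as read-weighted mean over the 8 sorting bins, only variants exceeding 10 total reads kept, mCherry placed adjacent to the peptide and sfGFP distal.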

| Sequence | protein stability index (Saccharomyces cerevisiae [1]) | protein stability index (Saccharomyces cerevisiae [2]) |
| --- | --- | --- |
| VRGAIGGWRLVG | 0.157 | 0.684 |
| LKILRQKQNHQN | 0.302 | 0.64 |
| RSLAASFWRVVG | 0.117 | 0.689 |
| KKHKKGQSQKIN | 0.204 | 0.676 |
| FSMRWTFCYWVN | 0.0818 | 0.365 |
| VRGAVLGWRLVG | 0.146 | 0.677 |
| FSMRWTFIYWVN | 0.0416 | 0.263 |
| LKILRQKMNHQL | 0.172 | 0.67 |
| CTSCGYKFRTNND | 0.692 | 0.7 |
| RLIQPLPVQFIN | 0.0372 | 0.583 |
| FSMRWTFRYWFN | 0.318 | 0.503 |
| PDKRNHLTKLLN | 0.17 | 0.584 |
| VRGAVGGWRLVGP | 0.664 | 0.671 |
| ARWRVGLWRGAST | 0.659 | 0.682 |
| LVVYFSCVACIN | 0.0194 | 0.0148 |
| ARWRVGLWRGAC | 0.123 | 0.681 |
| RKHKKGQKQKIN | 0.121 | 0.574 |
| FSMRWTFPYWVN | 0.079 | 0.601 |
| KKHKKGYKQKIN | 0.113 | 0.607 |
| PSLKASFWRVVG | 0.147 | 0.678 |
| PDHRNHLIKLLN | 0.0948 | 0.589 |
| VRGAVGGWRTVG | 0.157 | 0.674 |
| LKILRQKMNNQN | 0.267 | 0.707 |
| FSMRWTFRYWTN | 0.0691 | 0.644 |

| Sequence | protein stability index (Saccharomyces cerevisiae [1]) | protein stability index (Saccharomyces cerevisiae [2]) |
| --- | --- | --- |
| KKHKKGQKQKPN | 0.617 | 0.722 |
| PDKRNHLIKLLS | 0.102 | 0.653 |
| KKHKKGGKQKIN | 0.169 | 0.653 |
| PWLAASFWRVVG | 0.0915 | 0.717 |
| CTSCGYWFRTNN | 0.438 | 0.668 |
| LVVYLSCVACIND | 0.0204 | 0.0356 |
| LHILRQKMNHQN | 0.105 | 0.662 |
| TKILRQKMNHQN | 0.148 | 0.67 |
| LKILRQKMNHQP | 0.373 | 0.677 |
| VRGAVGGWRDVG | 0.606 | 0.629 |
| LVVYLSCVARIN | 0.0258 | 0.0375 |
| PSCAASFWRVVG | 0.154 | 0.691 |
| VRGAVGGWRLVF | 0.564 | 0.677 |
| FSMRWTFRYWVNV | 0.147 | 0.5 |
| LVVYPSCVACIN | 0.248 | 0.337 |
| KKHKKGQGQKIN | 0.42 | 0.59 |
| LKINRQKMNHQN | 0.209 | 0.682 |
| ARWRVGLWRGSS | 0.516 | 0.686 |
| KKHKKFQKQKIN | 0.0762 | 0.599 |
| LVVYLSCVCCIN | 0.461 | 0.415 |
| PDKRNHLIKLLF | 0.269 | 0.576 |
| RLFQPLPVQFLN | 0.034 | 0.658 |
| KCHKKGQKQKIN | 0.342 | 0.592 |
| KKHKKGQKQKCN | 0.312 | 0.584 |

| Sequence | protein stability index (Saccharomyces cerevisiae [1]) | protein stability index (Saccharomyces cerevisiae [2]) |
| --- | --- | --- |
| VRGAVGGWRLVGV | 0.649 | 0.659 |
| VREAVGGWRLVG | 0.143 | 0.676 |
| FSMMWTFRYWVN | 0.0586 | 0.354 |
| FSMRWTFRTWVN | 0.181 | 0.475 |
| LVVYLSCVACIY | 0.0122 | 0.0359 |
| PDKRNHLIKLLC | 0.0722 | 0.577 |
| LKILRQKMNHQNI | 0.65 | 0.685 |
| AAWRVGLWRGAS | 0.503 | 0.72 |
| CTSCMYKFRTNN | 0.207 | 0.689 |
| VWGAVGGWRLVG | 0.134 | 0.692 |
| PDKRNTLIKLLN | 0.108 | 0.599 |
| LKILRQKMNGQN | 0.353 | 0.659 |
| RLIGPLPVQFLN | 0.0842 | 0.598 |
| RLIQPLPVQWLN | 0.0664 | 0.641 |
| FRGAVGGWRLVG | 0.192 | 0.685 |
| VDKRNHLIKLLN | 0.105 | 0.609 |
| LKILRQKMNHQNW | 0.659 | 0.67 |
| LKITRQKMNHQN | 0.229 | 0.674 |
| PPLAASFWRVVG | 0.165 | 0.673 |
| PDKRNHLIKLLNQ | 0.316 | 0.667 |
| RLIQPLPVQMLN | 0.0702 | 0.606 |
| CTSCGYKFRTNNN | 0.674 | 0.677 |
| LVVSLSCVACIN | 0.0181 | 0.0593 |
| LVVYLSKVACIN | 0.0955 | 0.38 |

| Sequence | protein stability index (Saccharomyces cerevisiae [1]) | protein stability index (Saccharomyces cerevisiae [2]) |
| --- | --- | --- |
| KKHKKGWKQKIN | 0.0739 | 0.682 |
| ARWQVGLWRGAS | 0.444 | 0.656 |
| RLIQPLNVQFLN | 0.0919 | 0.575 |
| FNMRWTFRYWVN | 0.0433 | 0.518 |
| RSIQPLPVQFLN | 0.0915 | 0.643 |
| ARWRVGLQRGAS | 0.677 | 0.69 |
| LVVYLSWVACIN | 0.0137 | 0.0348 |
| RLIQCLPVQFLN | 0.0457 | 0.571 |
| VRGAVGGNRLVG | 0.681 | 0.67 |
| PDKRNHLIKLGN | 0.617 | 0.605 |
| FSMRWTFRCWVN | 0.17 | 0.425 |
| LKILRQKMTHQN | 0.273 | 0.688 |
| ARWRVGLWRAAS | 0.117 | 0.683 |
| PSLAASFWRCVG | 0.144 | 0.674 |
| NLIQPLPVQFLN | 0.0875 | 0.582 |
| PDKRNHSIKLLN | 0.174 | 0.631 |
| LKIRRQKMNHQN | 0.246 | 0.687 |
| RLIQPLPVYFLN | 0.0711 | 0.729 |
| CTSCGYKFRTNT | 0.579 | 0.693 |
| LVVYLSCVVCIN | 0.0309 | 0.0986 |
| PSLWASFWRVVG | 0.103 | 0.697 |
| RLIQPEPVQFLN | 0.215 | 0.61 |
| ARWRVGLWRGIS | 0.109 | 0.68 |
| VRGAVGGWRMVG | 0.155 | 0.685 |

| Sequence | protein stability index (Saccharomyces cerevisiae [1]) | protein stability index (Saccharomyces cerevisiae [2]) |
| --- | --- | --- |
| LVVYLHCVACIN | 0.0158 | 0.0327 |
| LKILRQKWNHQN | 0.194 | 0.662 |
| LVVYWSCVACIN | 0.0151 | 0.0704 |
| PSLEASFWRVVG | 0.121 | 0.673 |
| VRGTVGGWRLVG | 0.151 | 0.705 |
| KKDKKGQKQKIN | 0.104 | 0.601 |
| CTSCGYKFRTMN | 0.186 | 0.682 |
| FSWRWTFRYWVN | 0.0592 | 0.756 |
| FSMRWTFRYWVW | 0.195 | 0.377 |
| PDKGNHLIKLLN | 0.23 | 0.635 |
| RLAQPLPVQFLN | 0.0466 | 0.566 |
| CTSCGNKFRTNN | 0.52 | 0.695 |
| FSMRWTFRYWIN | 0.0567 | 0.469 |
| PDKRNLLIKLLN | 0.124 | 0.608 |
| PSLAASFWRVVGM | 0.679 | 0.703 |
| ARARVGLWRGAS | 0.531 | 0.688 |
| ARWRVGLARGAS | 0.707 | 0.692 |
| CTSCGYDFRTNN | 0.639 | 0.691 |
| LKILRQKMGHQN | 0.541 | 0.672 |
| VRGAVGGWRKVG | 0.133 | 0.68 |
| VRGAVGTWRLVG | 0.171 | 0.694 |
